According to patent US20180087080A1:

Experiments:
FcγRIIIa receptor [1] = molecular target: FcγRIIIa receptor (UniProt P08637); test: SPR (Biacore), FcγRIIIa immobilised, run 2
FcγRIIIa receptor [2] = molecular target: FcγRIIIa receptor (UniProt P08637); test: SPR (Biacore), FcγRIIIa immobilised, run 1
FcγRIIIa receptor [3] = molecular target: FcγRIIIa receptor (UniProt P08637); test: SPR (Biacore), FcγRIIIa immobilised; sample with 9.6 % afucosylation
FcγRIIIa receptor [4] = molecular target: FcγRIIIa receptor (UniProt P08637); test: SPR (Biacore), FcγRIIIa immobilised; sample with 5.1 % afucosylation

UniProt P08637, sequence (P08637 17-208 limits assumed): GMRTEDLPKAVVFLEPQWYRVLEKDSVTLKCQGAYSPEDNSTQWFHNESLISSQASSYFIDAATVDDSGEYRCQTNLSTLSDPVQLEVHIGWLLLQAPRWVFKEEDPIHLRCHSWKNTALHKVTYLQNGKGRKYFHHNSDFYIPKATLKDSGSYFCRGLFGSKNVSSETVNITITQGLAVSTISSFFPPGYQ

Kd (FcγRIIIa receptor [1]) | Kd (FcγRIIIa receptor [2]) | Kd (FcγRIIIa receptor [3]) | Kd (FcγRIIIa receptor [4]) | Substance
508 nM | 372 nM | – | – | Itolizumab produced from mouse derived NS0 cell line (T1h) (antibody)
– | – | 306 nM | 328 nM | Itolizumab produced from Chinese Hamster Ovary (CHO) cell line (Bmab-600) (antibody)
